Assay results: patent US20030186329

What was measured:
[1] = tested on: phage clone 39, displaying hexamer RSAVVK
[2] = tested on: phage clone 37, displaying hexamer RKASLS
[3] = tested on: phage 33, displaying hexamer RSANAI
peptide LGGSGRKASLSLE [4] = tested on: T1, peptide LGGSGRKASLSLE
T1 sequence: LGGSGRKASLSLE

peptide GSGKS [5] = tested on: T2, peptide GSGKS
T2 sequence: GSGKS

peptide LGGSGRSATRDLE [6] = tested on: T3, peptide LGGSGRSATRDLE
T3 sequence: LGGSGRSATRDLE

peptide LGGYGRSANAILE [7] = tested on: T4, peptide LGGYGRSANAILE
T4 sequence: LGGYGRSANAILE

[8] = tested on: phage clone 35, displaying hexamer RSATRD
peptide SGRS [9] = tested on: T5, peptide SGRS
T5 sequence: SGRS

[10] = tested on: T6, peptide (V) of Table 1, YGRS
T6 sequence: YGRS

peptide LGGRGRSANAILE [11] = tested on: T7, peptide LGGRGRSANAILE
T7 sequence: LGGRGRSANAILE

[12] = tested on: T8, peptide (VI) of Table 1, RGRK
T8 sequence: RGRK

[13] = tested on: T9, peptide (I), native cleavage sequence from plasminogen
T9 sequence: KKSPGRVVGGSVAH

[14] = tested on: phage clone 38, displaying hexamer RRAVSN
peptide SGKS [15] = tested on: T10, peptide SGKS
T10 sequence: SGKS

peptide LGGSGRNAQVRLE [16] = tested on: T11, peptide LGGSGRNAQVRLE
T11 sequence: LGGSGRNAQVRLE

[17] = tested on: phage clone 40, displaying hexamer RSSSSH
[18] = tested on: T12, peptide (IV) of Table 1, LGGSGHYGRSGLE
T12 sequence: LGGSGHYGRSGLE

peptide LGQRGRSANAILE [19] = tested on: T13, peptide LGQRGRSANAILE
T13 sequence: LGQRGRSANAILE

[20] = tested on: T14, peptide (VII) of Table 1, FRGRK
T14 sequence: FRGRK

[21] = tested on: phage clone 36, displaying hexamer RSAKVD
peptide SGRSA [22] = tested on: T15, peptide SGRSA
T15 sequence: SGRSA

[23] = molecular target: fusion of maltose binding protein, QRGRSA and the HY4 gene product of Arabidopsis thaliana (UniProt Q43125)
fusion of maltose binding protein, QRGRSA and the HY4 gene product of Arabidopsis thaliana, sequence (Q43125 other isoform, or with tags, fused parts or gaps): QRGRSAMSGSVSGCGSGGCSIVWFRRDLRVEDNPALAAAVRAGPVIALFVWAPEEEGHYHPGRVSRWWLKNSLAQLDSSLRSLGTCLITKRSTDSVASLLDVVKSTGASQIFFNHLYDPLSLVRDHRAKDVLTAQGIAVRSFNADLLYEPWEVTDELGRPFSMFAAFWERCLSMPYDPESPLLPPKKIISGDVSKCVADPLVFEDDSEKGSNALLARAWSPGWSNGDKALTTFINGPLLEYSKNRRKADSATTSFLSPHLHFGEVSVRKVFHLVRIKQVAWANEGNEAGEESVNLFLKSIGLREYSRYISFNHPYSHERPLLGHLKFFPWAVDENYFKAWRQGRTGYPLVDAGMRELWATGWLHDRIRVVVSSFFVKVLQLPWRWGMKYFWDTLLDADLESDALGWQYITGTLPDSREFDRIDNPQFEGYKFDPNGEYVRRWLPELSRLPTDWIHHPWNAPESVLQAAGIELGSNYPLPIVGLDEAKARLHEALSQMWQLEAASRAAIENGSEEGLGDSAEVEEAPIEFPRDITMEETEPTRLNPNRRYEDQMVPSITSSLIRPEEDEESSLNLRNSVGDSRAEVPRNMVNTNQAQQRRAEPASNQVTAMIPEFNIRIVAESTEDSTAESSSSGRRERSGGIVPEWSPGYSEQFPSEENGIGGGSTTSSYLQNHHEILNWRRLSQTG

[24] = tested on: phage clone 34, displaying hexamer RNAQVR
[25] = tested on: T16, peptide (II) of Table 1, LGGSGQRGRKALE
T16 sequence: LGGSGQRGRKALE

peptide LGGSGRSANAILE [26] = tested on: T17, peptide LGGSGRSANAILE
T17 sequence: LGGSGRSANAILE

[27] = tested on: T18, peptide (III) of Table 1, LGGSGERARGALE
T18 sequence: LGGSGERARGALE

peptide LGGSGRKASLSLE [28] = tested on: T1, peptide LGGSGRKASLSLE; assay: kinetics of peptide hydrolysis by the enzyme, HPLC, Eadie-Hofstee
peptide LGGSGRSATRDLE [29] = tested on: T3, peptide LGGSGRSATRDLE; assay: as above
peptide LGGYGRSANAILE [30] = tested on: T4, peptide LGGYGRSANAILE; assay: as above
peptide LGGRGRSANAILE [31] = tested on: T7, peptide LGGRGRSANAILE; assay: as above
[32] = tested on: T9, peptide (I), native cleavage sequence from plasminogen; assay: as above
peptide LGGSGRNAQVRLE [33] = tested on: T11, peptide LGGSGRNAQVRLE; assay: as above
[34] = tested on: T12, peptide (IV) of Table 1, LGGSGHYGRSGLE; assay: as above
peptide LGQRGRSANAILE [35] = tested on: T13, peptide LGQRGRSANAILE; assay: as above
[36] = tested on: T16, peptide (II) of Table 1, LGGSGQRGRKALE; assay: as above
peptide LGGSGRSANAILE [37] = tested on: T17, peptide LGGSGRSANAILE; assay: as above
[38] = tested on: T18, peptide (III) of Table 1, LGGSGERARGALE; assay: as above
peptide GSGKS [39] = tested on: T2, peptide GSGKS; assay: kinetics of peptide hydrolysis by the enzyme, HILIC HPLC, Eadie-Hofstee
peptide SGRS [40] = tested on: T5, peptide SGRS; assay: as above
[41] = tested on: T6, peptide (V) of Table 1, YGRS; assay: as above
[42] = tested on: T8, peptide (VI) of Table 1, RGRK; assay: as above
peptide SGKS [43] = tested on: T10, peptide SGKS; assay: as above
[44] = tested on: T14, peptide (VII) of Table 1, FRGRK; assay: as above
peptide SGRSA [45] = tested on: T15, peptide SGRSA; assay: as above
peptide LGGSGRSANAILE [46] = tested on: T17, peptide LGGSGRSANAILE; assay: kinetics of peptide hydrolysis by u-PA, HPLC, Eadie-Hofstee

For “urokinase-type plasminogen activator (u-PA)”, the “dot blot analysis under the most stringent conditions of digestion” value (from here on “dot blot analysis”) [1] was “proved to be particularly labile u-PA substrates”, the “dot blot analysis” value [2] was “proved to be particularly labile u-PA substrates” and the “dot blot analysis” value [3] was “proved to be particularly labile u-PA substrates”. For the same substance, the kcat (peptide LGGSGRKASLSLE [4]) was 1.14 s⁻¹, the kcat/Km (peptide LGGSGRKASLSLE [4]) was 1010 M⁻¹ s⁻¹ and the kcat (peptide GSGKS [5]) was 0.82 s⁻¹. For the same substance, the kcat/Km (peptide GSGKS [5]) was 193 M⁻¹ s⁻¹, the “fold improvement as substrate against control peptide (I)” value (peptide LGGSGRSATRDLE [6]) was “by factors of 840-5300” and the kcat (peptide LGGSGRSATRDLE [6]) was 0.54 s⁻¹. For the same substance, the kcat/Km (peptide LGGSGRSATRDLE [6]) was 740 M⁻¹ s⁻¹, the kcat (peptide LGGYGRSANAILE [7]) was 0.7 s⁻¹ and the kcat/Km (peptide LGGYGRSANAILE [7]) was 318 M⁻¹ s⁻¹. For the same substance, the “dot blot analysis” value [8] was “proved to be particularly labile u-PA substrates”, the kcat (peptide SGRS [9]) was 2.3 s⁻¹ and the kcat/Km (peptide SGRS [9]) was 1100 M⁻¹ s⁻¹. For the same substance, the kcat [10] was 2.6 s⁻¹, the kcat/Km [10] was 230 M⁻¹ s⁻¹ and the kcat (peptide LGGRGRSANAILE [11]) was 0.08 s⁻¹. It also gave a kcat/Km (peptide LGGRGRSANAILE [11]) of 67 M⁻¹ s⁻¹, a kcat [12] of 0.76 s⁻¹ and a kcat/Km [12] of 16 M⁻¹ s⁻¹. The kcat [13] was 0.003 s⁻¹, the kcat/Km [13] was 0.88 M⁻¹ s⁻¹ and the “dot blot analysis” value [14] was “proved to be particularly labile u-PA substrates”. For the same substance, the “fold decrease of catalytic efficiency against peptide (VI) SGRS” value (peptide SGKS [15]) was “by a factor of 7 for u-PA”, the kcat (peptide SGKS [15]) was 1.22 s⁻¹ and the kcat/Km (peptide SGKS [15]) was 154 M⁻¹ s⁻¹. For the same substance, the kcat (peptide LGGSGRNAQVRLE [16]) was 3.69 s⁻¹, the kcat/Km (peptide LGGSGRNAQVRLE [16]) was 3200 M⁻¹ s⁻¹ and the “dot blot analysis” value [17] was “proved to be particularly labile u-PA substrates”. The kcat [18] was 0.059 s⁻¹, the kcat/Km [18] was 15 M⁻¹ s⁻¹ and the kcat (peptide LGQRGRSANAILE [19]) was 0.068 s⁻¹. For the same substance, the kcat/Km (peptide LGQRGRSANAILE [19]) was 45 M⁻¹ s⁻¹, the kcat [20] was 0.14 s⁻¹ and the kcat/Km [20] was 16 M⁻¹ s⁻¹. For the same substance, the “dot blot analysis” value [21] was “proved to be particularly labile u-PA substrates”, the kcat (peptide SGRSA [22]) was 3.7 s⁻¹ and the kcat/Km (peptide SGRSA [22]) was 1200 M⁻¹ s⁻¹. The “cleavage of fusion protein, SDS-PAGE” value [23] was “whereas u-PA did not”, the “dot blot analysis” value [24] was “proved to be particularly labile u-PA substrates” and the kcat [25] was 0.02 s⁻¹. The kcat/Km [25] was 9.2 M⁻¹ s⁻¹, the “fold improvement as substrate against control peptide (I)” value (peptide LGGSGRSANAILE [26]) was “by factors of 840-5300” and the “fold increase of kcat against control peptide (I)” value (peptide LGGSGRSANAILE [26]) was “increased by a factor of more than 940”. For the same substance, the kcat (peptide LGGSGRSANAILE [26]) was 2.83 s⁻¹, the kcat/Km (peptide LGGSGRSANAILE [26]) was 4700 M⁻¹ s⁻¹ and the kcat [27] was 0.004 s⁻¹. It also gave a kcat/Km [27] of 4 M⁻¹ s⁻¹, a Km (peptide LGGSGRKASLSLE [28]) of 1130 µM and a Km (peptide LGGSGRSATRDLE [29]) of 733 µM. For the same substance, the Km (peptide LGGYGRSANAILE [30]) was 2200 µM, the Km (peptide LGGRGRSANAILE [31]) was 1200 µM and the Km [32] was 3400 µM. The Km (peptide LGGSGRNAQVRLE [33]) was 1160 µM, the Km [34] was 3800 µM and the Km (peptide LGQRGRSANAILE [35]) was 1500 µM. For the same substance, the Km [36] was 2180 µM, the Km (peptide LGGSGRSANAILE [37]) was 603 µM and the Km [38] was 970 µM. For the same substance, the Km (peptide GSGKS [39]) was 4250 µM, the Km (peptide SGRS [40]) was 2100 µM and the Km [41] was 11400 µM. It also gave a Km [42] of 46500 µM, a Km (peptide SGKS [43]) of 7900 µM and a Km [44] of 8600 µM. For the same substance, the Km (peptide SGRSA [45]) was 3100 µM and the “fold reduction of Km against control peptide (I)” value (peptide LGGSGRSANAILE [46]) was “reduced by a factor of 5.6”.
